System: Escherichia coli TOP10
Experiment: shrunken log2 fold change of peptide-encoding DNA abundance (4.5 h post-induction vs induction); higher = less antimicrobial activity (less host growth inhibition)
Conditions: time post-induction: 4.5 h; library: site-saturation at positions 5, 18, 19, 20
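Note: peptides expressed intracellularly from a pBAD plasmid library in pooled LB shake-flask culture, induced with 0.3% L-arabinose, DNA abundance read by NGS, three biological replicates, DESeq2 with apeglm shrinkage.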

Sequence	shrunken log2 fold change
RRIRWRPPRLPRPRPRPNSNPRP	-0.583
RRIRYRPPRLPRPRPRPDNEPRP	-0.258
RRIRRRPPRLPRPRPRPTSEPRP	0.372
RRIRHRPPRLPRPRPRPTIGPRP	-0.0227
RRIRKRPPRLPRPRPRPEKVPRP	0.112
RRIRQRPPRLPRPRPRPGTNPRP	-0.0906
RRIRFRPPRLPRPRPRPIFSPRP	-0.341
RRIRRRPPRLPRPRPRPGLMPRP	0.342
RRIRRRPPRLPRPRPRPDAHPRP	-0.00208
RRIRCRPPRLPRPRPRPLEWPRP	0.0823
RRIRVRPPRLPRPRPRPKCMPRP	0.0847
RRIRYRPPRLPRPRPRPICNPRP	-0.332
RRIRCRPPRLPRPRPRPCTFPRP	-0.856
RRIRHRPPRLPRPRPRPAVSPRP	-0.378
RRIRIRPPRLPRPRPRPFNWPRP	-0.155
RRIRVRPPRLPRPRPRPHKNPRP	-0.301
RRIRCRPPRLPRPRPRPTPSPRP	0.736
RRIRTRPPRLPRPRPRPIQLPRP	-0.122
RRIRMRPPRLPRPRPRPCPIPRP	-0.404
RRIRMRPPRLPRPRPRPINRPRP	-0.0561

Sequence	shrunken log2 fold change
RRIRDRPPRLPRPRPRPHRQPRP	-0.0279
RRIRPRPPRLPRPRPRPITFPRP	-0.112
RRIRTRPPRLPRPRPRPLHTPRP	-0.161
RRIRWRPPRLPRPRPRPWNMPRP	-0.101
RRIRGRPPRLPRPRPRPKQIPRP	0.335
RRIRARPPRLPRPRPRPHSYPRP	0.0128
RRIRWRPPRLPRPRPRPKYSPRP	-0.654
RRIRDRPPRLPRPRPRPAEWPRP	0.0244
RRIRVRPPRLPRPRPRPWQVPRP	-0.161
RRIRVRPPRLPRPRPRPIYGPRP	-0.0564
RRIRHRPPRLPRPRPRPDQAPRP	0.106
RRIRCRPPRLPRPRPRPVWGPRP	-0.0554
RRIRERPPRLPRPRPRPHFHPRP	-0.597
RRIRFRPPRLPRPRPRPVEMPRP	-0.327
RRIRMRPPRLPRPRPRPNRLPRP	0.0386
RRIRFRPPRLPRPRPRPNKHPRP	-0.348
RRIRPRPPRLPRPRPRPHAPPRP	0.082
RRIRERPPRLPRPRPRPESMPRP	-0.46
RRIRGRPPRLPRPRPRPKAPPRP	0.855
RRIRTRPPRLPRPRPRPDKQPRP	0.0419

Sequence	shrunken log2 fold change
RRIRKRPPRLPRPRPRPPYGPRP	0.156
RRIRQRPPRLPRPRPRPWQQPRP	-0.333
RRIRERPPRLPRPRPRPSTRPRP	-0.232
RRIRQRPPRLPRPRPRPVIDPRP	-0.016
RRIRQRPPRLPRPRPRPAHSPRP	0.426
RRIRWRPPRLPRPRPRPLNLPRP	-0.184
RRIRFRPPRLPRPRPRPQFDPRP	-0.286
RRIRQRPPRLPRPRPRPYQFPRP	-0.168
RRIRFRPPRLPRPRPRPCVGPRP	-0.433
RRIRVRPPRLPRPRPRPYYWPRP	-0.0974
RRIRERPPRLPRPRPRPKVIPRP	-0.0206
RRIRLRPPRLPRPRPRPETKPRP	0.00291
RRIRLRPPRLPRPRPRPEEFPRP	-0.0121
RRIRFRPPRLPRPRPRPDKTPRP	-0.0318
RRIRHRPPRLPRPRPRPDWYPRP	-0.061
RRIRHRPPRLPRPRPRPWDWPRP	-0.00132
RRIRGRPPRLPRPRPRPGIMPRP	0.374
RRIRMRPPRLPRPRPRPNTYPRP	-0.0596
RRIRPRPPRLPRPRPRPHEKPRP	-0.0384
RRIRCRPPRLPRPRPRPHRFPRP	-0.0713

Reference: the supplement of paper PMC9112550, “Optimization of the antimicrobial peptide Bac7 by deep mutational scanning” (BMC Biology, 2022)
